Results published in patent US20140072613A1, “Compositions and Methods for Treating Cutaneous Scarring” (priority 2012, published 2014).

Experiments:
Experiment in all cases: biochemical
Format in all cases: biochemical
266 human kinases [1] = biological target: T1, 266 human kinases (Homo sapiens, UniProt P51817); details: PrKX(h); 100 μM
T1 sequence (P51817 1-358): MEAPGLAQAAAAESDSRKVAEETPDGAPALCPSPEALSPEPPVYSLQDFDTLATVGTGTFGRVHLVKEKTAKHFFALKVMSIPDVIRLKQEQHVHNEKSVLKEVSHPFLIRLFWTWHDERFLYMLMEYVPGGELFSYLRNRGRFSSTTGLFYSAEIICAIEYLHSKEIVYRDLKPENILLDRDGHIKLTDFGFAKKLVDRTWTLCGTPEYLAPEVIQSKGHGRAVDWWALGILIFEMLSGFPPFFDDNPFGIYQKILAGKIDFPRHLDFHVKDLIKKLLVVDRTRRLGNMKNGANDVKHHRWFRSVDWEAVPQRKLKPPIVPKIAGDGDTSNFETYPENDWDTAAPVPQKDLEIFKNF
In short: (§1)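 A filter-capture radiometric assay: phosphorylated cationic substrate binds an anionic membrane and is scintillation-counted, with values referenced to full-activity control.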

266 human kinases [2] = biological target: T2, 266 human kinases (Homo sapiens, UniProt O15146); details: MuSK(h); 100 μM
T2 sequence (O15146 24-869): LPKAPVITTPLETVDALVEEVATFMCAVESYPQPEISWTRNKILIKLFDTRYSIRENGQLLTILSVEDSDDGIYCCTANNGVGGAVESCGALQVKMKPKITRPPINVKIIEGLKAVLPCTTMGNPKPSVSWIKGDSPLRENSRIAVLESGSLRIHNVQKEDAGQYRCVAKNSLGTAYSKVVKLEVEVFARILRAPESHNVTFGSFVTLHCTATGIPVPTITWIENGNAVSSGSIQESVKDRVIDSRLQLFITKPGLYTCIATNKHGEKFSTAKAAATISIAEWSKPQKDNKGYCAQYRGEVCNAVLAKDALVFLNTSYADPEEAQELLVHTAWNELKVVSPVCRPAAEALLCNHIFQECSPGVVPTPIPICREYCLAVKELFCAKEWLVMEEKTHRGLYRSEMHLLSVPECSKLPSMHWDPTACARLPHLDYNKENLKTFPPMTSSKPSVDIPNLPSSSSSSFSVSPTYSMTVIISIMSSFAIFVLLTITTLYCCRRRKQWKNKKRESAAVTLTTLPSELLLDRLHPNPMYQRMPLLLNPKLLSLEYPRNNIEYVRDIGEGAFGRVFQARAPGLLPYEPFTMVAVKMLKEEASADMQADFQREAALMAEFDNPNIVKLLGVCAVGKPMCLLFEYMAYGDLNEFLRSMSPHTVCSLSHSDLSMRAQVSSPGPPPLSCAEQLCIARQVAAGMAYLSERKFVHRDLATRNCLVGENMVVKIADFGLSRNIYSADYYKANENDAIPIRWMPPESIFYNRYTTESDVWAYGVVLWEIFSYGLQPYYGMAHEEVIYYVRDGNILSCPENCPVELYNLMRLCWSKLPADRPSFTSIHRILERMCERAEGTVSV
In short: as §1

266 human kinases [3] = biological target: 266 human kinases (Homo sapiens, UniProt P10721, V560G); details: cKit(V560G)(h); 100 μM
In short: as §1

266 human kinases [4] = biological target: 266 human kinases (Homo sapiens, UniProt P50750); details: CDK9/cyclin T1(h); 100 μM
Chain of 266 human kinases (Homo sapiens, UniProt P50750) (P50750 whole entry): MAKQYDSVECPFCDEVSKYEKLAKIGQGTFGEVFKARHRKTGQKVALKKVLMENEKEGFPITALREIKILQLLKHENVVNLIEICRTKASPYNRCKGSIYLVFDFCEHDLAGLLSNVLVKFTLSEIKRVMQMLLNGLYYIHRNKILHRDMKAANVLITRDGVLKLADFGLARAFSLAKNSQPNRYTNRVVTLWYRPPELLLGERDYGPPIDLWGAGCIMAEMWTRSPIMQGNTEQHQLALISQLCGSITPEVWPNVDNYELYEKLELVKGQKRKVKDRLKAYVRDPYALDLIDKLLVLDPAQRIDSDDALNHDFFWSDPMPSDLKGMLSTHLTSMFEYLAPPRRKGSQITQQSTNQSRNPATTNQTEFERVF
In short: as §1

266 human kinases [5] = biological target: 266 human kinases (Homo sapiens, UniProt P04049); details: c-RAF(h); 100 μM
In short: as §1

266 human kinases [6] = biological target: T3, 266 human kinases (Homo sapiens, UniProt O15111); details: IKKα(h); 100 μM
T3 sequence (O15111 1-745): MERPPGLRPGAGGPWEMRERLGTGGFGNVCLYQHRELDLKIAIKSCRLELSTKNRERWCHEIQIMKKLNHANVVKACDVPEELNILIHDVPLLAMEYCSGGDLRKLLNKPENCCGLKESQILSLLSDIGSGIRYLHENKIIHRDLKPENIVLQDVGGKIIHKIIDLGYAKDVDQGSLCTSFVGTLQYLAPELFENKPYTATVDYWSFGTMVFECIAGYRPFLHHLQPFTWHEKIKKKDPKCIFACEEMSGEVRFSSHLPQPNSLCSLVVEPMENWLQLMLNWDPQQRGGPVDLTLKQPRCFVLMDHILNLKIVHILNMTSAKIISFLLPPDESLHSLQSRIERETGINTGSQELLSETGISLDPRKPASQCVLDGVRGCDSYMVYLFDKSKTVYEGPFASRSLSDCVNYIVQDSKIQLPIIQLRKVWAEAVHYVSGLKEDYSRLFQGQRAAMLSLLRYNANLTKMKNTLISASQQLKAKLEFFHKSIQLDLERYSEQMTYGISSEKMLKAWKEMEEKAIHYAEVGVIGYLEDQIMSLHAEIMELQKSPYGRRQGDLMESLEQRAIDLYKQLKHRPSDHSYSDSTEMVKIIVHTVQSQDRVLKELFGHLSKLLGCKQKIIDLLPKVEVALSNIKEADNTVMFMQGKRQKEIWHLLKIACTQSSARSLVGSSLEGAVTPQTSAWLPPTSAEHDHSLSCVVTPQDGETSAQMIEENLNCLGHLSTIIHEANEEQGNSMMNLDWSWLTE
In short: as §1

266 human kinases [7] = biological target: 266 human kinases (Homo sapiens, UniProt Q06187, R28H); details: BTK(R28H)(h); 100 μM
Chain of 266 human kinases (Homo sapiens, UniProt Q06187, R28H) (Q06187 whole entry R28H): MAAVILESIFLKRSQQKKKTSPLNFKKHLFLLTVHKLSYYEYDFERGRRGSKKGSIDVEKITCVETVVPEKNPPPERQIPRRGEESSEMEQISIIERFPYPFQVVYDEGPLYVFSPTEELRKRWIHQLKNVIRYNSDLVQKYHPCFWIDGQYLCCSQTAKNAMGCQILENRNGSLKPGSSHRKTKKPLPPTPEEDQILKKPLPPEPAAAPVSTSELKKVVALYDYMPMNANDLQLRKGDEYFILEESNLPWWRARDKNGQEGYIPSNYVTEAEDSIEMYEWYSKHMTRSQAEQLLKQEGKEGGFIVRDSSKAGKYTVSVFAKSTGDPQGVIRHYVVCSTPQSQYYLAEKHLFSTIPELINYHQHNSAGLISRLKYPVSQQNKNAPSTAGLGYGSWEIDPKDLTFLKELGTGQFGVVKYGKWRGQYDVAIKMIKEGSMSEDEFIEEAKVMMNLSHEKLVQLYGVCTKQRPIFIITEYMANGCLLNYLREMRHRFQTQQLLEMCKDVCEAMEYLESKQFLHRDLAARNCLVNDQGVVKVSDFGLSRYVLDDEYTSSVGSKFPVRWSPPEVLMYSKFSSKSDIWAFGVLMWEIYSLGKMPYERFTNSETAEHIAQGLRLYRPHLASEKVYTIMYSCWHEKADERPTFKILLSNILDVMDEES
In short: as §1

266 human kinases [8] = biological target: 266 human kinases (Homo sapiens, UniProt O43318); details: TAK1(h); 100 μM
Chain of 266 human kinases (Homo sapiens, UniProt O43318) (O43318 whole entry): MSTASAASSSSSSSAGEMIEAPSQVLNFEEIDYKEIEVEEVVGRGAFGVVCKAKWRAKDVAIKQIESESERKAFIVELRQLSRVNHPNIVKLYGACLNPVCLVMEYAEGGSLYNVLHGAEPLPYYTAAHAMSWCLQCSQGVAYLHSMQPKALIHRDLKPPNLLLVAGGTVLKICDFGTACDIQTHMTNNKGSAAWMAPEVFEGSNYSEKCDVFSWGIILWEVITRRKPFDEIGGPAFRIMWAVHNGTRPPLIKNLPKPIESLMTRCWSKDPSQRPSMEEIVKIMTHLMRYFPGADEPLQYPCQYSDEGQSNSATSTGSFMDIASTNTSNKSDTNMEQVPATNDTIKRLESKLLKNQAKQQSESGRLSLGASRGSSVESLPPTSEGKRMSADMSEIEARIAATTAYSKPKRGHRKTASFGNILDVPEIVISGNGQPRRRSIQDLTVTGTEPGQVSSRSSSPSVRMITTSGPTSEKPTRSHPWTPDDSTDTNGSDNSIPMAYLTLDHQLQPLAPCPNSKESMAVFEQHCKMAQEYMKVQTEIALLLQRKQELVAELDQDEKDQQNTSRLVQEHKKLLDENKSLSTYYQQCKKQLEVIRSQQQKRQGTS
In short: as §1

266 human kinases [9] = biological target: 266 human kinases (Homo sapiens, UniProt P34947); details: GRK5(h); 100 μM
Chain of 266 human kinases (Homo sapiens, UniProt P34947) (P34947 whole entry): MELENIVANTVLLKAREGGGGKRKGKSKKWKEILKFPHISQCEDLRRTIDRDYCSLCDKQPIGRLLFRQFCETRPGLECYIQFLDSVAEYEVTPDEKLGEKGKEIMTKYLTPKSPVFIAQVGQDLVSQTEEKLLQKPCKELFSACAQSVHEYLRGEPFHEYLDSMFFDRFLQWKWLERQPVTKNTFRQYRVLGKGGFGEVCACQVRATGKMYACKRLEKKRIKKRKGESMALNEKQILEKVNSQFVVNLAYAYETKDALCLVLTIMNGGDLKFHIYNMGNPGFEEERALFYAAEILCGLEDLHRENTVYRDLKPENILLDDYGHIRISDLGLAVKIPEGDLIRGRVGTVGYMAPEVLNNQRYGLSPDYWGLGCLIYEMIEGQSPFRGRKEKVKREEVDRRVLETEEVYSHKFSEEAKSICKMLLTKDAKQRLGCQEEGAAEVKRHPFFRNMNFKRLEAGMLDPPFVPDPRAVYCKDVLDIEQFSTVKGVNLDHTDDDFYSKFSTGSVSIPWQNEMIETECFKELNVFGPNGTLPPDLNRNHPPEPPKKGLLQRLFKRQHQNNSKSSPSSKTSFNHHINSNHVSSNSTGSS
In short: as §1

266 human kinases [10] = biological target: 266 human kinases (Homo sapiens, UniProt P19784); details: CK2α2(h); 100 μM
Chain of 266 human kinases (Homo sapiens, UniProt P19784) (P19784 whole entry): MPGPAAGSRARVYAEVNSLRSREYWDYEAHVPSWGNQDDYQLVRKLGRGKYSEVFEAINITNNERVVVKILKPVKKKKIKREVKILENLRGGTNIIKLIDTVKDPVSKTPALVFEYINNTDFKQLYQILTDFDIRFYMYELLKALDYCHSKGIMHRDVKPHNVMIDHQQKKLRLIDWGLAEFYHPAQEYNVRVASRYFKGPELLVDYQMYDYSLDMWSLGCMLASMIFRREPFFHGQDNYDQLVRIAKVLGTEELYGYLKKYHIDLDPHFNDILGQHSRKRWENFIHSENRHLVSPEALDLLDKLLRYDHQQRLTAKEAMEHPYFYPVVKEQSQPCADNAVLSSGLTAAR
In short: as §1

With “HRRIKAWLKKIKALARQLGVAA (mammal) [MMI-0500]” the “% activity” value (266 human kinases [1]) was 57%, the “% activity” value (266 human kinases [2]) was 27% and the “% activity” value (266 human kinases [3]) was 198%. For the same sequence, the “% activity” value (266 human kinases [4]) was 6%, the “% activity” value (266 human kinases [5]) was 19% and the “% activity” value (266 human kinases [6]) was 50%. The “% activity” value (266 human kinases [7]) was 10%.

In the case of “YARAAARQARAKALNRQLGVA (mammal) [MMI-0200]”, the “% activity” value (266 human kinases [8]) is reported as 124%, the “% activity” value (266 human kinases [9]) is reported as 135% and the “% activity” value (266 human kinases [10]) is reported as 88%.
